One molecule from publication PMC2225174 (Acta Crystallographica Section F, 2006) can be followed below.

The assay concerns the target T1, SsoPCNA1 (Sulfolobus solfataricus, UniProt P57766 1-249).
T1 sequence (looked up): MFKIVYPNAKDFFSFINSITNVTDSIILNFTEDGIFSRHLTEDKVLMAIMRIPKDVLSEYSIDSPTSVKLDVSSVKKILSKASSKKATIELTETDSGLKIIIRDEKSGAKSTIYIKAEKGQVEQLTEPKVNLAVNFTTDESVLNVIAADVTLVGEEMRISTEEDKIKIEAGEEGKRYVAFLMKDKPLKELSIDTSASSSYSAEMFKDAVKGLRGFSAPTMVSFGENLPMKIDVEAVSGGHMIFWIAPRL
Kind of assay: crystal structure.

B1: SsoPCNA2 (natural protein, Sulfolobus solfataricus, UniProt Q97Z84 1-245, looked up)
chain: MKAKVIDAVSFSYILRTVGDFLSEANFIVTKEGIRVSGIDPSRVVFLDIFLPSSYFEGFEVSQEKEIIGFKLEDVNDILKRVLKDDTLILSSNESKLTLTFDGEFTRSFELPLIQVESTQPPSVNLEFPFKAQLLTITFADIIDELSDLGEVLNIHSKENKLYFEVIGDLSTAKVELSTDNGTLLEASGADVSSSYGMEYVANTTKMRRASDSMELYFGSQIPLKLRFKLPQEGYGDFYIAPRAD
For the molecule B1, the binding result is given as “binds”.
